Assay results published in patent US20220089784A1 (University of California, published 2022).

Legend:
BoNT/B1 = target: T1, BoNT/B1 (Clostridium botulinum, UniProt P10844 2-1291); assay: yeast scFv FACS
T1 sequence: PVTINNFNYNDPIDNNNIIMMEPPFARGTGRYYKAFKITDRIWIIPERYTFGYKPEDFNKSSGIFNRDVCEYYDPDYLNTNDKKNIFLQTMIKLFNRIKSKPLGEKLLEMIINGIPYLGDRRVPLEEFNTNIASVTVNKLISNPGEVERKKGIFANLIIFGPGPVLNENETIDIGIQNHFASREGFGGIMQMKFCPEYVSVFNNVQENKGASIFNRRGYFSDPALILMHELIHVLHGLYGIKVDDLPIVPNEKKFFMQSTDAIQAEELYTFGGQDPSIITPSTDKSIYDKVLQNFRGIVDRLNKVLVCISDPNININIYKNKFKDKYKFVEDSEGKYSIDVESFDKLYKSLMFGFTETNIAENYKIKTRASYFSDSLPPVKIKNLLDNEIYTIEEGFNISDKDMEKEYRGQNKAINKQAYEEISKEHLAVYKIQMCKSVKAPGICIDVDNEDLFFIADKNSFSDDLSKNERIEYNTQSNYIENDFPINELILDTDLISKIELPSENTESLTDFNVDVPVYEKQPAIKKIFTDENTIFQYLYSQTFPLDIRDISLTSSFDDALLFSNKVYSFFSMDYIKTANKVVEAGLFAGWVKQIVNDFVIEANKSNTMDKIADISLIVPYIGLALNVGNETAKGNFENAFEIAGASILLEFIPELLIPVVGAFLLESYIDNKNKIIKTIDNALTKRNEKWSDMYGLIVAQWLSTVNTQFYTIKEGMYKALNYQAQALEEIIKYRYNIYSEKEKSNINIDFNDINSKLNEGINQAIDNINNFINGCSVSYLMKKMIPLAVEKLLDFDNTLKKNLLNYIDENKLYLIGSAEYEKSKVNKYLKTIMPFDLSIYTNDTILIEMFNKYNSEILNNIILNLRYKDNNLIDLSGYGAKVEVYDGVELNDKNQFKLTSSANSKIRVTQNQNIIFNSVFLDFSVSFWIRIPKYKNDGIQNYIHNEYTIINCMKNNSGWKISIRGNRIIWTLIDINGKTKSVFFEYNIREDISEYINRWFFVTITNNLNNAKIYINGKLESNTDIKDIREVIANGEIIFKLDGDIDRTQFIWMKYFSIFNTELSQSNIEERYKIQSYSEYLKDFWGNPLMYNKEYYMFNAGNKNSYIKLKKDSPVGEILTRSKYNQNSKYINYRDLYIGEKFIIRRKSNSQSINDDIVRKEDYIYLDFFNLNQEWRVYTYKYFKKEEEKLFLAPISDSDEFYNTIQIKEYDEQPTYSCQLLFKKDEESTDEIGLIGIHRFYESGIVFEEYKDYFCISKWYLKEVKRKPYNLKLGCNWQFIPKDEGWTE

[1] = target: T2, BoNT/B light chain (recombinant) (Clostridium botulinum, UniProt P10844 1-441); assay: yeast scFv FACS
T2 sequence: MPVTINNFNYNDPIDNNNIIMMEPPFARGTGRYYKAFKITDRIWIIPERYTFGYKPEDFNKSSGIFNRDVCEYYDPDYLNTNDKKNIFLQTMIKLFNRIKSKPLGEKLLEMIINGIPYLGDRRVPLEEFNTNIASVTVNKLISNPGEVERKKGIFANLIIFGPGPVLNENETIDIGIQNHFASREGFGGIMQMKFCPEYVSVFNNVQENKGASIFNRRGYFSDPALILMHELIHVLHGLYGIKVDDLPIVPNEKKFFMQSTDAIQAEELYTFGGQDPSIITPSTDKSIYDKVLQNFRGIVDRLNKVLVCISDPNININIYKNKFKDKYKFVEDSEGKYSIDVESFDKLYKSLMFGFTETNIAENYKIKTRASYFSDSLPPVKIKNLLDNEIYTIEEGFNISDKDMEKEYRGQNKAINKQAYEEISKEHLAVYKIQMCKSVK

[2] = target: T3, BoNT/F1 (proteolytic BoNT/F) (Clostridium botulinum, UniProt A7GBG3 1-1278); assay: IgG
T3 sequence: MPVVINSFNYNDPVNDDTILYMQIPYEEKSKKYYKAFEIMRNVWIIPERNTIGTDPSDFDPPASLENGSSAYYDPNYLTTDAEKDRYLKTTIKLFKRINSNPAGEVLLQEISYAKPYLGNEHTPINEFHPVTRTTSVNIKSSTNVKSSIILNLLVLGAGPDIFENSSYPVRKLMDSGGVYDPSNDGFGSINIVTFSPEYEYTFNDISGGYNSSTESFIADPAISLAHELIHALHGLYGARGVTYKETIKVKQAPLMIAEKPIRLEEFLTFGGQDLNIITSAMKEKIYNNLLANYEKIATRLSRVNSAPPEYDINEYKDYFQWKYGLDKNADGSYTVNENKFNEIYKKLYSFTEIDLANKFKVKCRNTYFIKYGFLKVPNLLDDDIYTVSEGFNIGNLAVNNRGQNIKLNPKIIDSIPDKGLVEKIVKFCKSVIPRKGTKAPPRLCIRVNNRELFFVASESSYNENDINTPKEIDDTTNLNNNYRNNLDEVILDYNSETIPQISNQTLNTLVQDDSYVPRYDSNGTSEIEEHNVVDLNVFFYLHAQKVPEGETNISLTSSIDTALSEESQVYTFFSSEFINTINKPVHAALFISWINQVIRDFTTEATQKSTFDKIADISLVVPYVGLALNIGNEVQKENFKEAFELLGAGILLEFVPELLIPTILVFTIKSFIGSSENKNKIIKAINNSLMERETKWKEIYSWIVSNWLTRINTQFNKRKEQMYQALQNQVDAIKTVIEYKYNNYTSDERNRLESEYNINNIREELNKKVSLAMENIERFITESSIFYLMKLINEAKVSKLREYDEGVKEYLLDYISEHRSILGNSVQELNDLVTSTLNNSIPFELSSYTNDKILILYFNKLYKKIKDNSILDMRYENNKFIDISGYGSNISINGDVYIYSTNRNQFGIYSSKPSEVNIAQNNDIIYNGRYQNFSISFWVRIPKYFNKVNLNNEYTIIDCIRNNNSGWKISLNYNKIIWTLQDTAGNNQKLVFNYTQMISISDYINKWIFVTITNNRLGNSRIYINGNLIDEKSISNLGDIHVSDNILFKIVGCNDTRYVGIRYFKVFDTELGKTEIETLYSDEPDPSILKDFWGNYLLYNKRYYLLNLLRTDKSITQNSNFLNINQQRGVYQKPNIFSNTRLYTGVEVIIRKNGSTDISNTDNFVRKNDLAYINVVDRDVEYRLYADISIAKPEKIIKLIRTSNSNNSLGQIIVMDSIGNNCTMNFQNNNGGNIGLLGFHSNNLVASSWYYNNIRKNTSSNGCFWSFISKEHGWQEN

B1: 19D22 scFv (scFv)
scFv: QIQLLQSGAELVRPGTSVKMSCKAAGYPFTSYWMGWVKQRPGHGLEWIGDIYPGGPYTNYNEKFKGKATLTADTSSSTAYMQFSSLTSEDSAIYYCALYGQVGSYAMDYWGQGTSVTVSSVDLKSGGSTSGSGKPGSGEGSSGSARQIVLTQSPAIMSASPGEKVTMTCSASSSVSYMYWYQQKPGSSPRLLIYDTSNLASGVPVRFSGSGSGTSYSLTISRMEAEDAATYYCQQWSSYPPITFGAGTKLEIK
notes: mouse
Kd (BoNT/B1): 7.39 nM
Kd [1]: 21.2 nM

B2: 19A9 scFv (scFv)
scFv: EVQLQQPGSELARPGASVKLSCKASGYTFTSYPITWVKQTTGQGLEWIGEIYPRSGNTYYNEKFKGKATLTADKSSSTAYMELRSLTSEDSAVYFCARDYYDYAGGGRGYWGQGTTLTVSSVDLKSGGSTSGSGKPGSGEGSSGSARDIVLTQSPAIMSASPGGKITITCSASSSVSYMHWFQQKPGTSPKLWIYSTSNLASGVPARFSGSGSGTSYSLTISRMEAEDAATYYCQQRSSYPYTFGGGTKLEIK
notes: mouse
Kd (BoNT/B1): 1.98 nM
Kd [1]: 3.16 nM

B3: 6F5 IgG (antibody, V domains shown)
VH: EVQLVQSGGNLVQPGGSLRLSCAATGPIGSHWMTWVRQAPGQGLEWVANINLDGTEKFYVDSVKGRFTVSRDNRKSSVFLQMNNLRVDDTAVYYCARLQWGGYNGWLSPWGQGTLVTVSS
VL: DIEMTQSPPSLSASVGDRVSLTCRASEYIGTSLNWYQQKPGKAPKLLIYAASALHSGVPSRFSGSGSGTDFTLTISGLQPEDFATYYCQQANDLPLTFGGGTKLEIK
Kd [2]: 0.66 nM

B4: 19D2 scFv (scFv)
scFv: EVQLQQSGGELARPGSSVKLSCKASGYSFTGYSLTWVKQTPGQGLEWIGEIYPRSGNTYYNENFQGKATLTADESSSTAYMELRSLTSEDSAVYFCARDFYDYDGGGRGYWGQGTTLTVSSVDLKSGGSTSGSGKPGSGEGSSGSARDIVMTQTPAIMSASPGEKVTITCSASSSVSYMHWYQQKPGTSPKLWIYSTSNLASGVPARFSGSGSGTSYSLTISRMEAEDAATYYCQQRSSYPYTFGGGTKLEIK
notes: mouse
Kd (BoNT/B1): 2.95 nM
Kd [1]: 5.69 nM

B5: 18E5 scFv (scFv)
scFv: EVQLQESGPELVKPGASVKISCKASGYTFTDHNMDWVKQSLGKSLEWIGDINPNNGGAVYNQNFKGKATLTVDKSSSTAYMELRSLTSEDTAVYYCARYGYYGYFDYWGQGTTLTVSSVDLKSGGSTSGSGKPGSGEGSSGSARQIVLTQSPAIMSASPGEKVTMTCRASSSVSSSYLHWYQQKPGSSPKLWIYSTSNLASGVPARFSGSGSGTSYSLTISSVEAEDAATYYCQQYDSSPSTFGAGTKLEIK
notes: mouse
Kd (BoNT/B1): 1.33 nM
Kd [1]: 1 nM

B6: 19B6 scFv (scFv)
scFv: QVQLQQSGAELVKPGASVKISCKASGYTFTDNYINWVKQRPGQGLEWIGWIHPGSGNAKYNEKFRAKATLTVDTSSNTAYMQLSSLTSEDSAVYFCARVGFRVNFDYWGQGTTLTVSSVDLKSGGSTSGSGKPGSGEGSSGSARQIVLTQSPAIMSASPGEKVTMTCSASSSLSYVHWYQQKPGSSPKPWIYATSNLVSGVPARFSGSRSGTSYSLTISSMEAEDAATYYCQQWSSYPPTFGAGTKLEIK
notes: mouse
Kd (BoNT/B1): 19.7 nM
Kd [1]: 2.35 nM

B7: 16B3 scFv (scFv)
scFv: EVQLQQSGPELVKPGASVKITCKASGYTFTDNNMDWVKQSHGKSLEWIGDINPNNGGSIYNQKFKGKASLTLDKSSSTAYMELRSLTSEDTAVYYCARWGYYGSLAYWGQGTLVTVSSVDLKSGGSTSGSGKPGSGEGSSGSARQNVLTQSPAIMSASPGEKVTMTCSASSSVSSRYLHWYQQKSGASPKLWIYGTSNLASGVPARFSGSGSGTSYSLTISSVEAEDAATYYCQQYHSDPLTFGGGTKLEIK
notes: mouse
Kd (BoNT/B1): 1.01 nM
Kd [1]: 0.84 nM

B8: 16D5 scFv (scFv)
scFv: EVKLVESGAELVRPGASVKLSCTPSGFNIKDDYMHWVKQRPEQGLEWIGRIDPANGNTRYAPKFQDKATLTADTSSNTAYLHLTSLTSEDTAVYYCARSYYRAWFDYWGQGTLVTVSSVDLKSGGSTSGSGKPGSGEGSSGSARQIVLTQSPATLSVTPGDSVSLSCRASQSISNNLHWYQQKSHESPRLLIKYASQSISGIPSRFSGSGSGTDFTLSINSVETEDFGMYFCQQSNSWPLTFGAGTRLEIK
notes: mouse
Kd (BoNT/B1): 7.57 nM
Kd [1]: 1.8 nM

B9: 18A6 scFv (scFv)
scFv: EVQLQQSGPELVKPGASVKISCKASGYTFTDNYINWVKQRPGQGLEWIGWIYPGSGNTKYNEKFKGKATLTVDTSSNTAYMQLTGLASDDSAVYFCARVNFYVSWDYWGQGTSVTVSSVDLKSGGSTSGSGKPGSGEGSSGSAREIVLTQSPAIMSASPGEKVTMTCSASSSISYMHWFQQKPGMSPKRRIFDTSKLASGVPARFSGSGSGTSYSLTISSMEAEDAGTYYCHQRSSYPFTFGGGTKLELK
notes: mouse
Kd (BoNT/B1): 14.5 nM
Kd [1]: 4.21 nM

B10: 18D10 scFv (scFv)
scFv: QVQLKQSGIEVMKPGASVKLSCKASGYPFTAYWIEWVKQRPGHGLEWIGEFLPGGISTNFNEKFKGKATFSADTSSNSAYIQLNSLTTEDSAIYYCVLTGTGFDYWGQGTSVTVSSVDLKSGGSTSGSGKPGSGEGSSGSARENVLTQSPAIMSASPGEKVTMTCSASSSVSYMHWYQQKSGTSPKRWIYDTSKLASGVPARFSGSGSGTSYSLTISSMEAEDAATYYCQQWSSNPLTFGAGTKLELK
notes: mouse
Kd (BoNT/B1): 5.97 nM
Kd [1]: 7.53 nM

B11: 6F3 IgG (antibody, V domains shown)
VH: QVQLQQSGPEVVKPGASVKISCKASGYTFADYWIGWTKQGPGHGLEWIGHIYPGGGYINYNEKFKGKATLTADMSSSTAYMQFSSLTSEDSAIYYCARVTMVESGDWYFDVWGTGTTVTVSS
VL: ENVLTQSPAIMSASLGEEITLTCSASSSVSYMHWYQQKSGTSPKLWIYYTSNLASGVPARFSGSGSGTSYSLTISSMEAEDAATYYCQQWSSNPYTFGGGTKLEIK
notes: IgG from scFv V genes
Kd [2]: 2.39 nM
